Laboratory results from patent publication US10705101B2, “Determination of the unbound free fatty acid profiles in biological and industrial specimens” (priority 2013, dated 2020).

How the values were obtained:
Assay type in all cases: binding
[1] = Probe response profile / specificity for different FFAu at 1 nM; conditions: FFAu giving the largest response to 1 nM of each FFAu; several listed in order of degree of specificity
Description: The abbreviations are: arachidonate (AA), docosahexaenoate (DHA), eicosapentaenoate (EPA), laurate (LAU), linoleate (LA), linolenate (LNA), myristate (MA), oleate (OA), palmitate (PA), palmitoleate (POA), stearate (SA), and vaccenate (VA).
Examples of probes used, generally in groups of 10 or more, to determine FFAu profiles in biological samples such as blood plasma or serum from animals and humans or media from microorganisms are shown in Table 2. In the sequences presented in Table 2 and the sequence listing, amino acids are numbered from the first residue of the mature protein. The initiator methionine residue of the wild-type protein is removed by aminopeptidase activity, leaving an alanine as residue 1. Thus, counting backwards and skipping 0, the initiator methionine is at residue position −1. Specificity indicates the FFAu that gives the largest response to 1 nM of each FFAu when one FFAu dominates the profile and more than one when there is a more even distribution of specificity. Where more than one is indicated they are listed in order of degree of specificity. The abbreviations are: arachidonate (AA), docosahexaenoate (DHA), eicosapentaenoate (EPA), laurate (LAU), linoleate (LA), linolenate (LNA), myristate (MA), oleate (OA), palmitate (PA), palmitoleate (POA), stearate (SA), and vacsinate (VA). The sequences indicate mutations relative to SEQ ID NO: 1. This sequence is a mutated rat intestinal fatty acid binding protein with a Glu 131 to Asp substitution and includes a COOH-terminal affininity tag comprising […], Gly 133 and 6 histidines.
The response profile is the fluorescence change as evaluated as (R−Ro)/Ro (ΔR/Ro) for each FFAu added as a complex of the FFA and albumin so that the FFAu concentration is clamped or buffered at 1 nM for every FFAu for which a calibration has been performed. The calculation is performed simply by rearranging equation 2 to solve for ΔR/Ro. […] However all the probes have different profiles and therefore complementary specificities for different FFAu. Abbreviations are as in Table 2.

[2] = Probe calibration by titration with FFA / FFA-BSA complexes: PA; conditions: equilibrium dissociation constant of probe for PA
Description: (§1) Calibration: Each probe is calibrated to the extent that the constants in Equation 2 are well determined for all FFAu to be included in profile calculations. Equation 2, which is the form of equation 1 for a single FFAu, relates the FFAu concentration to the equilibrium dissociation constant (Kd), fluorometric constants (Q and Rm) and the measured R values.
(§2) The calibration parameters are determined essentially as described in U.S. Pat. No. 7,601,510 which is incorporated herein by reference and (Huber et al Biochemistry (2006) 45:14263-14274) where the calibrated ADIFAB2 probe was used to generate FFA-BSA complexes with accurate and well buffered FFAu concentrations. To calibrate probes with substantially higher affinities than used in U.S. Pat. No. 7,601,510 and (Huber et al Biochemistry (2006) 45:14263-14274) a boot strap method is used in which a probe having higher affinities is calibrated with ADTFAB2. Such a probe is then used to generate FFA-BSA complexes with FFAu concentrations from 0.1 to 10 nM and these complexes are then used to calibrate other high affinity probes.
(§3) Probe calibration involves titrating the probes with either (i) un-buffered FFA or (ii) BSA-buffered FFA stocks. The un-buffered titrations involve measuring the R-value of a 1 μM probe solution as it is slowly titrated to saturation with small aliquots of a 100 to 250 μM FFA stock (Richieri G V et al. (1992) J Biol Chem 267: 23495-23501, Richieri G V et al. (1999) Mol Cell Biochem 192: 87-94). In this case, the total FFA concentration for each point in the titration is known and a nonlinear fit to the titration data yields the full set of fluorometric constants. In an un-buffered FFA titration, probe concentration is a key variable because the probe binds FFA, directly affecting the FFAu value.
(§4) Alternatively, in a BSA-buffered FFA calibration, the probe solution is titrated with a series of FFA-BSA complexes (600 μM BSA with [FFAu] ranging from 0.1 nM to 4 μM). The titration samples are FFA-BSA complex diluted 50-fold in Measuring Buffer. Probe is added to a concentration of 0.5 μM and the R-value is measured. Because BSA buffers FFAu, its concentration remains constant (i.e. known), even after the addition of probe. […] At least two calibrations with each of the up to 15 different FFA are performed for each probe.
(§5) All of the probes reveal substantial differences for different FFAu and in many cases these differences are related to the aqueous solubility of the FFA. For example, of the FFA in Table 3, SA is the least soluble and MA the most soluble. As discussed in (Richieri G V et al (2000) Biochemistry 39: 7197-7204) the tendency of natural proteins and FABPs, in particular, is for binding constants to be largest (smallest Kd) for the least soluble FFA and conversely for the most soluble FA. In two cases, ADIFAB2 and L11, Kd for SA is substantially the smallest and MA the largest and that pattern is more or less maintained for most of the other probes in Table3 with the exception of L83. In that case MA has the largest affinity while SA's more than 10 fold smaller. To some extent the other calibrations constants follow that behavior; Q is largest for the smallest Kd and Rmax is often largest, so that the probe response tends to be larger for FFA with the larger affinities. The ability to generate mutations that overcome the “natural thermodynamics” allows for probes that have a wide range of specificities and sensitivities than enable the determination of FFAu profiles.

[3] = Probe calibration by titration with FFA / FFA-BSA complexes: MA; conditions: equilibrium dissociation constant of probe for MA
Description: as §1, §2, §3, §4, §5

[4] = Probe calibration by titration with FFA / FFA-BSA complexes: SA; conditions: equilibrium dissociation constant of probe for SA; read-out: Kd SA
Description: as §1, §2, §3, §4, §5

[5] = Probe calibration by titration with FFA / FFA-BSA complexes: POA; conditions: equilibrium dissociation constant of probe for POA
Description: as §1, §2, §3, §4, §5

[6] = Probe calibration by titration with FFA / FFA-BSA complexes: AA; conditions: equilibrium dissociation constant of probe for AA
Description: as §1, §2, §3, §4, §5

[7] = Probe calibration by titration with FFA / FFA-BSA complexes: LA; conditions: equilibrium dissociation constant of probe for LA
Description: as §1, §2, §3, §4, §5

[8] = Probe calibration by titration with FFA / FFA-BSA complexes: LNA; conditions: equilibrium dissociation constant of probe for LNA
Description: as §1, §2, §3, §4, §5

[9] = Probe calibration by titration with FFA / FFA-BSA complexes: DHA; conditions: equilibrium dissociation constant of probe for DHA
Description: as §1, §2, §3, §4, §5

[10] = Probe calibration by titration with FFA / FFA-BSA complexes: OA; conditions: equilibrium dissociation constant of probe for OA
Description: as §1, §2, §3, §4, §5

| Molecule | Specificity [1] | Kd [2] [nM] | Kd [3] [nM] | Kd [4] [nM] | Kd [5] [nM] | Kd [6] [nM] | Kd [7] [nM] | Kd [8] [nM] | Kd [9] [nM] | Kd [10] [nM] |
| --- | --- | --- | --- | --- | --- | --- | --- | --- | --- | --- |
| L50BP4 E2: acrylodan-labeled mutant FABP probe: M18L, M21F, I23F, K27C, G31N, L72T, A73T, D74A, T76F (protein, UniProt P02693 2-132, looked up, variant M18L M21F I23F K27C G31N L72T A73T D74A T76F, acrylodan label, acrylodan-labeled mutant FABP probe: M18L, M21F, I23F, K27C, G31N, L72T, A73T, D74A, T76F) Fatty acid-binding protein, …: AFDGTWKVDRNENYEKFLEKFGFNVVCRKLNAHDNLKLTITQEGNKFTVKESSNFRNIDVVFELGVDFAYSTTAGFELTGTWTMEGNKLVGKFKRVDNGKELIAVREISGNELIQTYTYEGVEAKRIFKKE | PA/MA | – | – | – | – | – | – | – | – | – |
| L50BP9 D5: acrylodan-labeled mutant FABP probe: M18L, M21F, I23L, K27C, G31N, L72S, A73T, D74A, T76I, Y117N (protein, UniProt P02693 2-132, looked up, variant M18L M21F I23L K27C G31N L72S A73T D74A T76I Y117N, acrylodan label, acrylodan-labeled mutant FABP probe: M18L, M21F, I23L, K27C, G31N, L72S, A73T, D74A, T76I, Y117N) Fatty acid-binding protein, …: AFDGTWKVDRNENYEKFLEKFGLNVVCRKLNAHDNLKLTITQEGNKFTVKESSNFRNIDVVFELGVDFAYSSTAGIELTGTWTMEGNKLVGKFKRVDNGKELIAVREISGNELIQTNTYEGVEAKRIFKKE | PA/POA/MA | – | – | – | – | – | – | – | – | – |
| L10P7 A4 L30C: acrylodan-labeled mutant FABP probe: Y14L, M18L, K27A, L30C, G31Y, A73L, Y117A (protein, UniProt P02693 2-132, looked up, variant Y14L M18L K27A L30C G31Y A73L Y117A, acrylodan label, acrylodan-labeled mutant FABP probe: Y14L, M18L, K27A, L30C, G31Y, A73L, Y117A) Fatty acid-binding protein, …: AFDGTWKVDRNENLEKFLEKMGINVVARKCYAHDNLKLTITQEGNKFTVKESSNFRNIDVVFELGVDFAYSLLDGTELTGTWTMEGNKLVGKFKRVDNGKELIAVREISGNELIQTATYEGVEAKRIFKKE | AA/DHA/OA/EPA/LA | 3 | 15.4 | 2 | 5.5 | 1 | 1.1 | 2.7 | 1.2 | 1.3 |
| L118P4 H5: acrylodan-labeled mutant FABP probe: Y14W, M18Q, K27C, L72A, D74Q, R106W (protein, UniProt P02693 2-132, looked up, variant Y14W M18Q K27C L72A D74Q R106W, acrylodan label, acrylodan-labeled mutant FABP probe: Y14W, M18Q, K27C, L72A, D74Q, R106W) Fatty acid-binding protein, …: AFDGTWKVDRNENWEKFQEKMGINVVCRKLGAHDNLKLTITQEGNKFTVKESSNFRNIDVVFELGVDFAYSAAQGTELTGTWTMEGNKLVGKFKRVDNGKELIAVWEISGNELIQTYTYEGVEAKRIFKKE | DHA | – | – | – | – | – | – | – | – | – |
| L2P22 G6: acrylodan-labeled mutant FABP probe: M18I, G31Y, A73G (protein, UniProt P02693 2-132, looked up, variant M18I G31Y A73G, acrylodan label, acrylodan-labeled mutant FABP probe: M18I, G31Y, A73G) Fatty acid-binding protein, …: AFDGTWKVDRNENYEKFIEKMGINVVKRKLYAHDNLKLTITQEGNKFTVKESSNFRNIDVVFELGVDFAYSLGDGTELTGTWTMEGNKLVGKFKRVDNGKELIAVREISGNELIQTYTYEGVEAKRIFKKE | – | 5.6 | 47.8 | 17.6 | 87.9 | 90.6 | 42.2 | 89 | 206 | 33.9 |
| L1P8 H2: acrylodan-labeled mutant FABP probe: Y14M, L38M, L72W (protein, UniProt P02693 2-132, looked up, variant Y14M L38M L72W, acrylodan label, acrylodan-labeled mutant FABP probe: Y14M, L38M, L72W) Fatty acid-binding protein, …: AFDGTWKVDRNENMEKFMEKMGINVVKRKLGAHDNLKMTITQEGNKFTVKESSNFRNIDVVFELGVDFAYSWADGTELTGTWTMEGNKLVGKFKRVDNGKELIAVREISGNELIQTYTYEGVEAKRIFKKE | OA/SA/VA | 45.4 | 299 | 19.2 | 209 | 104 | 97.5 | 217 | 248 | 14.4 |
| L128P18 A7: acrylodan-labeled mutant FABP probe: Y14W, M18L, M21I, I23L, K27C, G31G, L38V, S71M, L72W, A73T, D74P, A104I, R106A, Q115E, Y117V (protein, UniProt P02693 2-132, looked up, variant Y14W M18L M21I I23L K27C G31G L38V S71M L72W A73T D74P A104I R106A Q115E Y117V, acrylodan label, acrylodan-labeled mutant FABP probe: Y14W, M18L, M21I, I23L, K27C, G31G, L38V, S71M, L72W, A73T, D74P, A104I, R106A, Q115E, Y117V) Fatty acid-binding protein, …: AFDGTWKVDRNENWEKFLEKIGLNVVCRKLGAHDNLKVTITQEGNKFTVKESSNFRNIDVVFELGVDFAYMWTPGTELTGTWTMEGNKLVGKFKRVDNGKELIIVAEISGNELIETVTYEGVEAKRIFKKE | DHA/AA | – | – | – | – | – | – | – | – | – |
| L76P9 E4: acrylodan-labeled mutant FABP probe: Y14L, M18Y, I23T, K27L, L30C, G31I, L72G, A73I, D74A, L78V, W82P, G91S, F93M, A104F, R106L, Y117L, Q115A (protein, UniProt P02693 2-132, looked up, variant Y14L M18Y I23T K27L L30C G31I L72G A73I D74A L78V W82P G91S F93M A104F R106L Y117L Q115A, acrylodan label, acrylodan-labeled mutant FABP probe: Y14L, M18Y, I23T, K27L, L30C, G31I, L72G, A73I, D74A, L78V, W82P, G91S, F93M, A104F, R106L, Y117L, Q115A) Fatty acid-binding protein, …: AFDGTWKVDRNENLEKFYEKMGTNVVLRKCIAHDNLKLTITQEGNKFTVKESSNFRNIDVVFELGVDFAYSGIAGTEVTGTPTMEGNKLVSKMKRVDNGKELIFVLEISGNELIATLTYEGVEAKRIFKKE | OA/VA/SA/LA | – | – | – | – | – | – | – | – | – |
